We go through 5 substances from publication PMC10628450.

A word on the Kd: it is a measure of binding affinity in units of concentration. High values mean weaker binding, low ones tighter binding. The koff is the first-order rate constant of dissociation.

Assay [1] concerns the target FcRn-His6 (UniProt P55899). Description: BLI. The note with it: bispecific antibody.
Assay [2] addresses FcRn-His6 (UniProt P55899). Description: BLI; pH 6. The note with it: bispecific antibody. On the technique in general: BLI is a label-free optical method that tracks binding on a fibre tip over time.
In assay [3] the target is Anti-NKp46_AB_F06 (human). Put plainly: BLI; antibodies loaded at 5 µg/ml on anti-human-Fc (AHC) or anti-human-CH1 (FAB2G) biosensors; antigen in solution (EGFR 3.125-200 nM; NKp46 and NKp30 1.6-100 nM) in kinetics buffer (PBS, 0.1% Tween-20, 1% BSA); 25°C; 1:1 binding model.
Anti-NKp46_AB_F06 (human), sequence (heavy, as listed by the source, chain 1 of 2): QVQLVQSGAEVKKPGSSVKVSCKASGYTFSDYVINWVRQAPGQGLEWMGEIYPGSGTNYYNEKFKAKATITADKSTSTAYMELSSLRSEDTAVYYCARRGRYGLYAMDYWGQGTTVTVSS
Anti-NKp46_AB_F06 (human), sequence (light, as listed by the source, chain 2 of 2): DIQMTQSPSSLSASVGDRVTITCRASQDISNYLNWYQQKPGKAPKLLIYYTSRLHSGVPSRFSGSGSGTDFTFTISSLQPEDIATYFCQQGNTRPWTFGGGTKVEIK
For assay [4], the target named is Anti-NKp46_AB_H05 (human). Described as above.
Anti-NKp46_AB_H05 (human), sequence (heavy, as listed by the source, chain 1 of 2): as the sequence (heavy, as listed by the source, chain 1 of 2) above
Anti-NKp46_AB_H05 (human), sequence (light, as listed by the source, chain 2 of 2): as the sequence (light, as listed by the source, chain 2 of 2) above

FcRn-His6, sequence (P55899 24-297, chain 1 of 2): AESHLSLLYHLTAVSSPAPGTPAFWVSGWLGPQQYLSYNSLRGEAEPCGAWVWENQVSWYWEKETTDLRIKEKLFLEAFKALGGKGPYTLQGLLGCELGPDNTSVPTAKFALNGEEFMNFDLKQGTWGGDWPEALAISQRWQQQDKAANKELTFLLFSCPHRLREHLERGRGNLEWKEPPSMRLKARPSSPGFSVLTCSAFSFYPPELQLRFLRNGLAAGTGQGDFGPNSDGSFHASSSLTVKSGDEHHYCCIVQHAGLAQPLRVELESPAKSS
FcRn-His6, sequence (partner, as listed by the source, chain 2 of 2): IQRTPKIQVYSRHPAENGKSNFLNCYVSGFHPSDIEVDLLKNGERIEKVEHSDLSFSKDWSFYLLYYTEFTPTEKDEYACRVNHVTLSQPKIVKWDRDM

Turning to Anti-NKp46_EF_F06 (from UniProt P01857), the Kd with FcRn-His6 [1] was determined as 477 nM. The koff in the assay with FcRn-His6 [2] amounted to 0.0736 s⁻¹.

Consider “human EGFR ECD-His6 (from UniProt P00533 25-645) (receptor)”, for which the values for the Kd in assay [3] and in assay [4] were 29.4 nM and 37.7 nM, respectively.

Regarding Anti-NKp46_EF_H05 (from UniProt P01857), in the assay with FcRn-His6 [2], the Kd was determined as 392 nM and the koff turned out to be 0.0852 s⁻¹.

In the assay with FcRn-His6 [2], Anti-NKp46_AB_H05 (from UniProt P01857) yielded a Kd of 399 nM and a koff of 0.076 s⁻¹.

In the assay with FcRn-His6 [2], Anti-NKp46_AB_F06 (from UniProt P01857) came in with a Kd of 407 nM and a koff of 0.0576 s⁻¹.
